Measured values taken from the supplement of paper PMC9170038.

System: MS2 coat protein
Assay: apparent KD of MS2 coat protein; designed switch direction (-1 OFF switch, 1 ON switch): -1; higher = weaker reporter binding
Method in brief: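 For each design, the apparent KD is the median over clusters of curves fitted to normalised cluster fluorescence. Clusters held RNA switches with common flanks, transcribed on Illumina chips by stalled E. coli RNA polymerase. These were titrated with SNAP-549-labelled MS2 coat protein, doubling from 0.7 or 1.5 nM to 3 µM, without input, with 200 uM small-molecule ligand, or with an oligonucleotide input.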

[1] = Eterna round: R95, input ligand: microRNA oligo, concentration not stated
[2] = input ligand: microRNA oligo, concentration not stated
[3] = Eterna round: R95, input ligand: FMN 200 uM
[4] = Eterna round: R95, input ligand: none

For “CAUGGAACAUAGGAUAUCUCGCGGCUAGGCUGCAGAGAAGGAUGUACAUGAGGAUCACCCAUGUAUGAUCCAAU [Ataratin] (puzzle: Exclusion 6)”, the “apparent KD of MS2 coat protein” value [1] was 16.3 nM.
For “CAUGGUUAACGAUUAUUCAACAUGAGGAUCACCCAUGUCUCUUUUUCUUUUUGCUCGUCUUAUCCUCCUUUGUUCAC [JR_STOV1_v2_Sub0102] (Eterna round: R97, puzzle: Sensor, turn-off variant 1)”, the “apparent KD of MS2 coat protein” value (input ligand: FMN 200 uM) was 379 nM and the “apparent KD of MS2 coat protein” value (input ligand: none) was 412 nM.
In the case of “CAUGUGUAAGGAUAUGACAAUGGUAUCUUCGGAUACCAUUGUCAGAAGGUACAUGAGGAUCACCCAUGUGGAUC [Ex4-3: 20] (puzzle: Exclusion 4)”, the “apparent KD of MS2 coat protein” value [1] is reported as 222 nM.
For “CAUUAUUAUCGAGGAUAUCCUAUUGAAAUUCUGGGAGAAGGCGGACUCAACAUGAGGAUCACCCAUGUGGGACGGAUGCUAGGA [salish99_exng1_r04_602] (Eterna round: R96, puzzle: Exclusion NG 1)”, the “apparent KD of MS2 coat protein” value [2] was 13.3 nM.
“CAUUAUUAUCGAGGAUAUCGUAUUGAGAUACUAUGAGAAGGCGGGAUAAACAUGAGGAUCACCCAUGUGAGCCUGAUGCUUGUG [Ex NG1 #37] (Eterna round: R96, puzzle: Exclusion NG 1)” was tested, and the “apparent KD of MS2 coat protein” value (input ligand: FMN 200 uM) was 17.4 nM, the “apparent KD of MS2 coat protein” value [2] was 14.3 nM and the “apparent KD of MS2 coat protein” value (input ligand: none) was 19.3 nM.
In the case of “CCAACGUGAGGAUAUGCAAUGCUAGCGGGAUCUUCUCUCCAACAUGAGGAUCACCCAUGUAGAAGGCGCUGUUG [Eternabot (L1) Solution 38] (Eterna round: R97, puzzle: Exclusion 2)”, the “apparent KD of MS2 coat protein” value (input ligand: FMN 200 uM) is reported as 198 nM and the “apparent KD of MS2 coat protein” value (input ligand: none) is reported as 97.1 nM.
With “CCAAGCUACUUCAUUAUCCACAUGAGGAUCACCCAUGUCUUGGCAAUUAUGACCUGCCCGUCAGGAGCUCGUCUUAU [Sensor-V1 #39] (Eterna round: R97, puzzle: Sensor, turn-off variant 1)” the “apparent KD of MS2 coat protein” value (input ligand: FMN 200 uM) was 113 nM and the “apparent KD of MS2 coat protein” value (input ligand: none) was 55.2 nM.
With “CCAAGCUUAUUCAUUAACCACAUGAGGAUCACCCAUGUAUAGGCAAUUAUGACUGGGCUCUGUGGUGCUCGUCUUAU [Sensor-V1 #27] (Eterna round: R97, puzzle: Sensor, turn-off variant 1)” the “apparent KD of MS2 coat protein” value (input ligand: FMN 200 uM) was 146 nM and the “apparent KD of MS2 coat protein” value (input ligand: none) was 143 nM.
In the case of “CCAAGUCCAUAGGAUAUCGACCAGUCCUCUGGAUGAGAAGGAUGAACUUGAGGAUCACCCAAGUGGCCUAAUAC [Eddilesove] (Eterna round: R97, puzzle: Exclusion 6)”, the “apparent KD of MS2 coat protein” value (input ligand: FMN 200 uM) is reported as 50.1 nM and the “apparent KD of MS2 coat protein” value (input ligand: none) is reported as 23.9 nM.
With “CCACGACAUGAGGAUCACCCAUGUGAGGAUAUGGCCUGAAAAGCGUGAGCAGUUUCAAUCAGAAGGCGCGUGGG [salish99_ex1_r4_062] (Eterna round: R97, puzzle: Exclusion 1)” the “apparent KD of MS2 coat protein” value (input ligand: FMN 200 uM) was 162 nM and the “apparent KD of MS2 coat protein” value (input ligand: none) was 62.2 nM.
In the case of “CCACUGCAUUGCAGUGUCGACAUGAGGAUCACCCAUGUGUCGCAGGCGCCGAGCUUUCCGCUCGUUACGUAUCGACG [Arorin] (Eterna round: R96, puzzle: Sensor v2, turn-off variant)”, the “apparent KD of MS2 coat protein” value (input ligand: FMN 200 uM) is reported as 60.3 nM, the “apparent KD of MS2 coat protein” value [2] is reported as 42.1 nM and the “apparent KD of MS2 coat protein” value (input ligand: none) is reported as 60.7 nM.
“CCAGCGAGUGUGAGGAUAUGCUGGUCCUUGGAUCAGCAGAAGGCACAUGAGGAUCACCCAUGUGAAAACGUUGG [JL bmx4 3.30] (puzzle: Brourd's mod of Exclusion 4)” was tested, and the “apparent KD of MS2 coat protein” value [1] was 21.8 nM.
For “CCAGCGUAUGUGAGGAUAUGCUGGUCCUUGGAUCAGCAGAAGGCACAUGAGGAUCACCCAUGUGGAAACGUUGA [Mod of JL 2 - Jieux - Brourd's mod of Exclusion 4] (Eterna round: R97, puzzle: Brourd's mod of Exclusion 4)”, the “apparent KD of MS2 coat protein” value (input ligand: FMN 200 uM) was 44.9 nM and the “apparent KD of MS2 coat protein” value (input ligand: none) was 19.9 nM.
For “CCAGGCAAUUCCACUUGUAACAUGAGGAUCACCCAUGUGACCUGGUAUCAAGGCAGCUCGUCAUCCCACCAUAUUCA [Eternabot (L1) Solution 23] (Eterna round: R97, puzzle: Sensor, turn-off variant 1)”, the “apparent KD of MS2 coat protein” value (input ligand: FMN 200 uM) was 18.8 nM and the “apparent KD of MS2 coat protein” value (input ligand: none) was 18.4 nM.
With “CCAGGCGUCUUUGCUCGUCUUAUUUGGAGAGGACUGAUAACAUGAGGAUCACCCAUGUGUGUGGGAGCGUUGCAGUG [JR_SV3TOV2_Sub020] (puzzle: Sensor v3, turn-off variant 2)” the “apparent KD of MS2 coat protein” value [3] was 86.3 nM, the “apparent KD of MS2 coat protein” value [1] was 161 nM and the “apparent KD of MS2 coat protein” value [4] was 116 nM.
For “CCAGGCUGUGUGAGGAUAUGCUGGUCCUUGGAUCAGCAGAAGGCACAUGAGGAUCACCCAUGUGAAGAGCUUGG [JL bmx4 3.23] (puzzle: Brourd's mod of Exclusion 4)”, the “apparent KD of MS2 coat protein” value [1] was 15.6 nM.
With “CCAGUGUAAGGAUAUCCGUUGCCGGAUAGAUGAUUAACAGCGGAGAAGGUACAUGAGGAUCACCCAUGUGUCCA [Eternabot (L1) Solution 8] (Eterna round: R97, puzzle: Exclusion 4)” the “apparent KD of MS2 coat protein” value (input ligand: FMN 200 uM) was 30.9 nM and the “apparent KD of MS2 coat protein” value (input ligand: none) was 20.9 nM.
For “CCAUAUAACUGAGGAUAUACGCACCACUAACUAGUAGAAGGCAGACAUGAGGAUCACCCAUGUGAUUUCUCAAUAUUAUACAUC [Prohibition 74 - Jieux - Exclusion NG 1] (Eterna round: R96, puzzle: Exclusion NG 1)”, the “apparent KD of MS2 coat protein” value (input ligand: FMN 200 uM) was 927 nM, the “apparent KD of MS2 coat protein” value [2] was 357 nM and the “apparent KD of MS2 coat protein” value (input ligand: none) was 775 nM.
In the case of “CCAUCGAGUGUGAGGAUAUGCUGGUCCUUGGAUCAGCAGAAGGCACAUGAGGAUCACCCAUGUGGAAACGGUGG [Mat - Exclusion 4 - JL Mod - D77] (puzzle: Brourd's mod of Exclusion 4)”, the “apparent KD of MS2 coat protein” value [1] is reported as 27.7 nM.
With “CCAUGUUAGCAGGAUAUGCAAUAAAUCUUUUAAGCAGAAGGGCUUACAUGAGGAUCACCCAUGUAUAAAGUCAA [JR_E6_Sub079] (puzzle: Exclusion 6)” the “apparent KD of MS2 coat protein” value [1] was 19.9 nM.
With “CCCACAUGAGGAUAUCCAUCUGGAUCAGACAAGAUCCUGAUGGAGAAGGUACAUGAGGAUCACCCAUGUGUGGG [Mat - Exclusion 4 - Eli Mod - D60] (Eterna round: R97, puzzle: Exclusion 4)” the “apparent KD of MS2 coat protein” value (input ligand: FMN 200 uM) was 189 nM and the “apparent KD of MS2 coat protein” value (input ligand: none) was 267 nM.
With “CCCACCAGAGGAUAUGCGCAUAGAUCAGACUUUGUUUCUGAACAUGAGGAUCACCCAUGUAGAAGGCUGUAACC [Ex2 #87] (Eterna round: R97, puzzle: Exclusion 2)” the “apparent KD of MS2 coat protein” value (input ligand: FMN 200 uM) was 25.2 nM and the “apparent KD of MS2 coat protein” value (input ligand: none) was 24.3 nM.
“CCCAUGUCAGGAUAUCUAAGAGAGGGCCAGCCCUCUCCUCCGGAGAAGGGACAUGAGGAUCACCCAUGUAAAAC [Biedle] (puzzle: Exclusion 4)” was tested, and the “apparent KD of MS2 coat protein” value [1] was 93.3 nM.
With “CCCGCGCGUGUAGGAUAUGGCUCGGUGUCUGGGCCAGAAGGACAUGAGGAUCACCCAUGUCUGCGGGUGUGGGCGUGGUUUGGG [-36, -33 kcal A 14%] (Eterna round: R96, puzzle: Exclusion NG 1)” the “apparent KD of MS2 coat protein” value (input ligand: FMN 200 uM) was 91.8 nM, the “apparent KD of MS2 coat protein” value [2] was 18.6 nM and the “apparent KD of MS2 coat protein” value (input ligand: none) was 27.2 nM.
In the case of “CCCUCAAGCGAGGAUAUAAAUGCGCAUUCGCGGUUAGAAGGCGCUACAUGAGGAUCACCCAUGUAAUUGAAUGG [jl-ex6-4.52 ViennaUCT mod] (Eterna round: R97, puzzle: Exclusion 6)”, the “apparent KD of MS2 coat protein” value (input ligand: FMN 200 uM) is reported as 117 nM and the “apparent KD of MS2 coat protein” value (input ligand: none) is reported as 58.7 nM.
In the case of “CCGAAAUCCUAGGAUAUGCUAGACGAAAGUCUAGCAGAAGGAGGAACAUGAGGAUCACCCAUGUGUCCUAUCGG [Mat - Exclusion 6 - Eli Mod - D30] (Eterna round: R97, puzzle: Exclusion 6)”, the “apparent KD of MS2 coat protein” value (input ligand: FMN 200 uM) is reported as 23.1 nM and the “apparent KD of MS2 coat protein” value (input ligand: none) is reported as 15.8 nM.
With “CCGACGUGAGGAUAUCCAUCUGGAUCAGACUAGAUCCUGAUGGAGAAGGCACAUGAGGAUCACCCAUGUUACGG [Eli 4x 4.41] (Eterna round: R97, puzzle: Exclusion 4)” the “apparent KD of MS2 coat protein” value (input ligand: FMN 200 uM) was 909 nM and the “apparent KD of MS2 coat protein” value (input ligand: none) was 524 nM.
For “CCGACUCAAGGAUAUUGUACUGCUGACAUGAGGAUCACCCAUGUAUGUUAACUCGGCCGACGAGAAGGUGACGACA [BotMod 1 - Jieux - Exclusion 5] (Eterna round: R97, puzzle: Exclusion 5)”, the “apparent KD of MS2 coat protein” value (input ligand: FMN 200 uM) was 39.6 nM and the “apparent KD of MS2 coat protein” value (input ligand: none) was 43.1 nM.
With “CCGAGGUAGCGGUCCUAUGACAUGAGGAUCACCCAUGUACCUCGCUACGAGCUUUUUGCUCGUCUUAUAAUUCUCGG [JL Atriat mod 1] (puzzle: Sensor v3, turn-off variant 1)” the “apparent KD of MS2 coat protein” value [3] was 55.2 nM, the “apparent KD of MS2 coat protein” value [1] was 229 nM and the “apparent KD of MS2 coat protein” value [4] was 73.6 nM.
“CCGCAACAUGAGGAUCACCCAUGUCAGGAUAUCGUACGUUCGUCGAAAGACGAUCGUACGAGAAGGGUGUGCGG [Eli x1 4.36] (Eterna round: R97, puzzle: Exclusion 1)” was tested, and the “apparent KD of MS2 coat protein” value (input ligand: FMN 200 uM) was 79.8 nM and the “apparent KD of MS2 coat protein” value (input ligand: none) was 110 nM.
In the case of “CCGCAUAAGCAGGAUAUCGUAUCGGAAACGAUACGAGAAGGGUUAACAUGAGGAUCACCCAUGUUCCUUAACGG [Fiskers Ex 6 - 30] (puzzle: Exclusion 6)”, the “apparent KD of MS2 coat protein” value [1] is reported as 17.5 nM.
With “CCGCUCCGUGUAGGAUAUUGGCCUGCUCUGGGUCGAGAAGGACAUGAGGAUCACCCAUGUAUGUUAUUAUCACGCGUGGCGCAU [Design 80] (Eterna round: R96, puzzle: Exclusion NG 1)” the “apparent KD of MS2 coat protein” value (input ligand: FMN 200 uM) was 41.8 nM, the “apparent KD of MS2 coat protein” value [2] was 18.9 nM and the “apparent KD of MS2 coat protein” value (input ligand: none) was 29.3 nM.
For “CCGCUGUGAGGAUAUUAGUAGUAGUCAGAAAAGACUAUUACUGAGAAGGCACAUGAGGAUCACCCAUGUCGCGG [Mat - Exclusion 4 - Eli Mod - D49] (Eterna round: R97, puzzle: Exclusion 4)”, the “apparent KD of MS2 coat protein” value (input ligand: FMN 200 uM) was 39.7 nM and the “apparent KD of MS2 coat protein” value (input ligand: none) was 28.8 nM.
For “CCGGAAAGGAAGGAUAUGCUAGACGAAAGUCUAGCAGAAGGUCCUACAUGAGGAUCACCCAUGUGUCCUCCCGG [Eli x6 4.08] (Eterna round: R97, puzzle: Exclusion 6)”, the “apparent KD of MS2 coat protein” value (input ligand: FMN 200 uM) was 2270 nM and the “apparent KD of MS2 coat protein” value (input ligand: none) was 270 nM.
In the case of “CCGGAAAGGAAGGAUAUGCUAGACGAUAGUCUAGCAGAAGGUCCUACAUGAGGAUCACCCAUGUGUCCUCCCGG [Mat - Exclusion 6 - Eli Mod - D43] (Eterna round: R97, puzzle: Exclusion 6)”, the “apparent KD of MS2 coat protein” value (input ligand: FMN 200 uM) is reported as 1260 nM and the “apparent KD of MS2 coat protein” value (input ligand: none) is reported as 182 nM.
